Assay results reported in paper PMC3299411 (Molecular Cell, 2011).

Legend:
Experiment in all cases: cross-linking
[1] = molecular target: H3 (Drosophila (endogenous in S2 cells)) (UniProt P02299)
[2] = molecular target: T1, endogenous CID (Drosophila (endogenous in S2 cells)), Q9V6Q2; conditions: remark: other sources report otherwise
T1 chain: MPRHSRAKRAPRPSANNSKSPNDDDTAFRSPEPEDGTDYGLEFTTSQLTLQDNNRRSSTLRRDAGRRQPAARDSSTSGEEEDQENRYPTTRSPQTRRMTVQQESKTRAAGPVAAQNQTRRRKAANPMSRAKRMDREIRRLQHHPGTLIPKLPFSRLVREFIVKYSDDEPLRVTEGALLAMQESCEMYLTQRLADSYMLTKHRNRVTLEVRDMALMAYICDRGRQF

[3] = molecular target: T2, FLAG-CID (N-terminally FLAG-tagged CID, wild type) (Drosophila), Q9V6Q2; conditions: remark: other sources report otherwise
T2 chain: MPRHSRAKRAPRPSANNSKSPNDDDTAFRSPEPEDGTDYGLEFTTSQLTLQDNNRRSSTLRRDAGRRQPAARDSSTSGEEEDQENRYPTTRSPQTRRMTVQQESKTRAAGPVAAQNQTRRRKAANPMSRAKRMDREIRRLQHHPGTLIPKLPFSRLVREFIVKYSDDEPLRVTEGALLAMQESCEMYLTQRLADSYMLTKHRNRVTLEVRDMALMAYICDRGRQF

cross-linking = molecular target: the molecule itself

H3 (from UniProt P02299 1-136) (natural protein)
stoichiometry N [1]: 2

B1: endogenous CID, Q9V6Q2 1-225 (natural protein)
chain: MPRHSRAKRAPRPSANNSKSPNDDDTAFRSPEPEDGTDYGLEFTTSQLTLQDNNRRSSTLRRDAGRRQPAARDSSTSGEEEDQENRYPTTRSPQTRRMTVQQESKTRAAGPVAAQNQTRRRKAANPMSRAKRMDREIRRLQHHPGTLIPKLPFSRLVREFIVKYSDDEPLRVTEGALLAMQESCEMYLTQRLADSYMLTKHRNRVTLEVRDMALMAYICDRGRQF
stoichiometry N [2]: 2

B2: FLAG-CID (N-terminally FLAG-tagged CID, wild type), Q9V6Q2 1-225 (natural protein)
chain: MPRHSRAKRAPRPSANNSKSPNDDDTAFRSPEPEDGTDYGLEFTTSQLTLQDNNRRSSTLRRDAGRRQPAARDSSTSGEEEDQENRYPTTRSPQTRRMTVQQESKTRAAGPVAAQNQTRRRKAANPMSRAKRMDREIRRLQHHPGTLIPKLPFSRLVREFIVKYSDDEPLRVTEGALLAMQESCEMYLTQRLADSYMLTKHRNRVTLEVRDMALMAYICDRGRQF
ratio dimer:monomer after crosslinking [3]: > 55
stoichiometry N [3]: 2

B3: FLAG-CID^D211A (natural protein, Drosophila, UniProt Q9V6Q2 1-225, looked up)
chain: MPRHSRAKRAPRPSANNSKSPNDDDTAFRSPEPEDGTDYGLEFTTSQLTLQDNNRRSSTLRRDAGRRQPAARDSSTSGEEEDQENRYPTTRSPQTRRMTVQQESKTRAAGPVAAQNQTRRRKAANPMSRAKRMDREIRRLQHHPGTLIPKLPFSRLVREFIVKYSDDEPLRVTEGALLAMQESCEMYLTQRLADSYMLTKHRNRVTLEVRAMALMAYICDRGRQF
ratio dimer:monomer after crosslinking (cross-linking): < 3
